Test system: Yarrowia lipolytica
Assay: Percent substrate conversion of desaturases and elongases expressed in Yarrowia lipolytica
Type: cell-based
Details: for Codon-Opt. Gene % Sub. Conv. / Native Gene % Sub. Conv.: percent substrate conversion; for Codon-Opt. Gene % Sub. Conv.: codon-optimized gene expressed in Y. lipolytica; for Native Gene % Sub. Conv.: expressed in Y. lipolytica; for percent (%) substrate conversion of the codon-optimized gene: transformants of strain Y2031, MM, 2 days
Procedure: The terms “conversion efficiency” and “percent substrate conversion” refer to the efficiency by which a particular enzyme (e.g., a desaturase or elongase) can convert substrate to product. The conversion efficiency is measured according to the following formula: ([product]/[substrate+product])*100, where ‘product’ includes the immediate product and all products in the pathway derived from it.
With respect to Δ12 desaturase, Applicants have made the surprising discovery that the Fusarium moniliforme Δ12 desaturase (encoded by SEQ ID NO:27) functions with greater efficiency than the native Yarrowia lipolytica Δ12 desaturase in producing 18:2 in Y. lipolytica (see WO 2005/047485). Specifically, expression of the F. moniliforme Δ12 desaturase under the control of the TEF promoter in Y. lipolytica was determined to produce higher levels of 18:2 (68% product accumulation of LA) than were previously attainable by expression of a chimeric gene encoding the Y. lipolytica Δ12 desaturase under the control of the TEF promoter (59% product accumulation of LA). This corresponds to a difference in percent substrate conversion (calculated as ([18:2+18:3]/[18:1+18:2+18:3])*100) of 85% versus 74%, respectively.
In the present invention, several desaturase and elongase genes from Table 5 were codon-optimized for expression in Yarrowia lipolytica, based on the host preferences described above. This was possible by first determining the Y. lipolytica codon usage profile (see WO 04/101757) and identifying those codons that were preferred. Then, for further optimization of gene expression in Y. lipolytica, the consensus sequence around the ‘ATG’ initiation codon was determined (i.e., ‘MAMMATGNHS’ (SEQ ID NO:356), wherein the nucleic acid degeneracy code used is as follows: M=A/C; S═C/G; H=A/C/T; and N=A/C/G/T). Table 7, below, compares the activity of native and codon-optimized genes when expressed in Y. lipolytica and provides details about each codon-optimized gene. % Sub. Conv. is the abbeviation for “percent substrate conversion” and Codon-Opt. is an abbreviation for “codon-optimized”.
Construct pDMW237 (FIG. 8C), an auto-replication plasmid comprising a chimeric FBAIN::1 g D9e::Pex20 gene, was transformed into Y. lipolytica Y2031 strain (Example 4) as described in the General Methods. Three transformants of Y2031 with pDMW237 were grown individually in MM media for two days and the cells were collected by centrifugation, lipids were extracted, and fatty acid methyl esters were prepared by trans-esterification, and subsequently analyzed with a Hewlett-Packard 6890 GC.
Construct pDMW297 was then used for transformation of strain Y2031 (Example 5) according to the General Methods. The transformant cells were plated onto MM selection media plates and maintained at 30° C. for 2 to 3 days. A total of 8 transformants grown on the MM plates were picked and re-streaked onto fresh MM plates. Once grown, these strains were individually inoculated into liquid MM at 30° C. and shaken at 250 rpm/min for 2 days. The cells were collected by centrifugation, lipids were extracted, and fatty acid methyl esters were prepared by trans-esterification, and subsequently analyzed with a Hewlett-Packard 6890 GC.

[1] = under the control of the TEF promoter in Y. lipolytica

Row | Molecule | Codon-Opt. Gene % Sub. Conv. | Native Gene % Sub. Conv. | other results
1 | Y. lipolytica Δ12 desaturase: native Yarrowia lipolytica Δ12 desaturase, SEQ ID NOs:23 and 24 (protein, listed as Yarrowia lipolytica) MDSTTQTNTGTGKVAVQPPTAFIKPIEKVSEPVYDTFGNEFTPPDYSIKDILDAIPQECYKRSYVKSYSYVARDCFFIAVFAYMAYAYLPLIPSASGRAVAWAMYSIVQGLFGTGLWVLAHECGHSAFSDSNTVNNVTGWVLHSSMLVPYYAWKLTHSMHHKSTGHLTRDMVFVPKDRKEFMENRGAHDWSELAEDAPLMTLYGLITQQVFGWPLYLLSYVTGQKYPKLNKWAVNHFNPNAPLFEKKDWFNIWISNVGIGITMSVIAYSINRWGLASVTLYYLIPYLWVNHWLVAITYLQHTDPTLPHYHADQWNFTRGAAATIDREFGFIGSFCFHDIIETHVLHHYVSRIPFYNARIATEKIKKVMGKHYRHDDTNFIKSLYTVARTCQFVEGKEGIQMFRNVNGVGVAPDGLPSKK |  |  | percent substrate conversion (calculated as ([18:2+18:3]/[18:1+18:2+18:3])*100) [1]: 74%; product accumulation of LA [1]: 59%
2 | S. diclina Δ17 desaturase: US 2003/0196217 A1; codon-optimized gene SEQ ID NO:16 (protein, listed as Saprolegnia diclina, misc_feature: synthetic delta-17 desaturase (codon-optimized)) MAEDKTKVEFPTLTELKHSIPNACFESNLGLSLYYTARAIFNASASAALLYAARSTPFIADNVLLHALVCATYIYVQGVIFWGFFTVGHDCGHSAFSRYHSVNFIIGCIMHSAILTPFESWRVTHRHHHKNTGNIDKDEIFYPHRSVKDLQDVRQWVYTLGGAWFVYLKVGYAPRTMSHFDPWDPLLLRRASAVIVSLGVWAAFFAAYAYLTYSLGFAVMGLYYYAPLFVFASFLVITTFLHHNDEATPWYGDSEWTYVKGNLSSVDRSYGAFVDNLSHHIGTHQVHHLFPIIPHYKLNEATKHFAAAYPHLVRRNDEPIITAFFKTAHLFVNYGAVPETAQIFTLKESAAAAKAKSD | 45% | 23% | 
3 | M. alpina high affinity C18/20 elongase: GenBank AX464731; codon-optimized gene SEQ ID NO:19 (protein, listed as Mortierella alpina, misc_feature: synthetic elongase 1 (codon-optimized)) MESIAPFLPSKMPQDLFMDLASAIGVRAAPYVDPLEAALVAQAEKYIPTIVHHTRGFLVAVESPLARELPLMNPFHVLLIVLAYLVTVFVGMQIMKNFERFEVKTFSLLHNFCLVSISAYMCGGILYEAYQANYGLFENAADHTFKGLPMAKMIWLFYFSKIMEFVDTMIMVLKKNNRQISFLHVYHHSSIFTIWWLVTFVAPNGEAYFSAALNSFIHVIMYGYYFLSALGFKQVSFIKFYITRSQMTQFCMMSVQSSWDMYAMKVLGRPGYPFFITALLWFYMWTMLGLFYNFYRKNAKLAKQAKADAAKEKARKLQ | 47% | 30% | 
4 | IgD9e: synthetic codon-optimized Δ9 elongase gene, SEQ ID NO:41 (protein, IgD9e: synthetic delta-9 elongase (codon-optimized for Yarrowia lipolytica)) MALANDAGERIWAAVTDPEILIGTFSYLLLKPLLRNSGLVDEKKGAYRTSMIWYNVLLALFSALSFYVTATALGWDYGTGAWLRRQTGDTPQPLFQCPSPVWDSKLFTWTAKAFYYSKYVEYLDTAWLVLKGKRVSFLQAFHHFGAPWDVYLGIRLHNEGVWIFMFFNSFIHTIMYTYYGLTAAGYKFKAKPLITAMQICQFVGGFLLVWDYINVPCFNSDKGKLFSWAFNYAYVGSVFLLFCHFFYQDNLATKKSAKAGKQL |  |  | percent (%) substrate conversion of the codon-optimized gene: about 13%
5 | Isochrysis galbana Δ9 elongase: codon-optimized gene SEQ ID NO:41 (protein, IgD9e: synthetic delta-9 elongase (codon-optimized for Yarrowia lipolytica)) MALANDAGERIWAAVTDPEILIGTFSYLLLKPLLRNSGLVDEKKGAYRTSMIWYNVLLALFSALSFYVTATALGWDYGTGAWLRRQTGDTPQPLFQCPSPVWDSKLFTWTAKAFYYSKYVEYLDTAWLVLKGKRVSFLQAFHHFGAPWDVYLGIRLHNEGVWIFMFFNSFIHTIMYTYYGLTAAGYKFKAKPLITAMQICQFVGGFLLVWDYINVPCFNSDKGKLFSWAFNYAYVGSVFLLFCHFFYQDNLATKKSAKAGKQL | 30% |  | 
6 | Isochrysis galbana Δ5 desaturase: codon-optimized gene SEQ ID NO:10 (protein, listed as Isochrysis galbana, misc_feature: synthetic delta-5 desaturase (codon-optimized)) MVAGKSGAAAHVTHSSTLPREYHGATNDSRSEAADVTVSSIDAEKEMIINGRVYDVSSFVKRHPGGSVIKFQLGADASDAYNNFHVRSKKADKMLYSLPSRPAEAGYAQDDISRDFEKLRLELKEEGYFEPNLVHVSYRCVEVLAMYWAGVQLIWSGYWFLGAIVAGIAQGRCGWLQHEGGHYSLTGNIKIDRHLQMAIYGLGCGMSGCYWRNQHNKHHATPQKLGTDPDLQTMPLVAFHKIVGAKARGKGKAWLAWQAPLFFGGIICSLVSFGWQFVLHPNHALRVHNHLELAYMGLRYVLWHLAFGHLGLLSSLRLYAFYVAVGGTYIFTNFAVSHTHKDVVPPTKHISWALYSANHTTNCSDSPFVNWWMAYLNFQIEHHLFPSMPQYNHPKIAPRVRALFEKHGVEYDVRPYLECFRVTYVNLLAVGNPEHSYHEHTH | 32% | 7% | 
7 | T. aureum C18/20 elongase: codon-optimized gene SEQ ID NO:22 (protein, listed as Thraustochytrium aureum, misc_feature: synthetic elongase (codon-optimized)) MANSSVWDDVVGRVETGVDQWMDGAKPYALTDGLPMMDVSTMLAFEVGYMAMLLFGIPIMKQMEKPFELKTIKLLHNLFLFGLSLYMCVETIRQAILGGYKVFGNDMEKGNESHAQGMSRIVYVFYVSKAYEFLDTAIMILCKKFNQVSFLHVYHHATIFAIWWAIAKYAPGGDAYFSVILNSFVHTVMYAYYFFSSQGFGFVKPIKPYITTLQMTQFMAMLVQSLYDYLFPCDYPQALVQLLGVYMITLLALFGNFFVQSYLKKPKKSKTN | 46% | 33% | 
8 | D8SF: completely corrected synthetic codon-optimized Δ8 desaturase gene, SEQ ID NO:48 (protein, D8SF: synthetic delta-8 desaturase (codon-optimized for Yarrowia lipolytica)) MVKSKRQALPLTIDGTTYDVSAWVNFHPGGAEIIENYQGRDATDAFMVMHSQEAFDKLKRMPKINPSSELPPQAAVNEAQEDFRKLREELIATGMFDASPLWYSYKISTTLGLGVLGYFLMVQYQMYFIGAVLLGMHYQQMGWLSHDICHHQTFKNRNWNNLVGLVFGNGLQGFSVTWWKDRHNAHHSATNVQGHDPDIDNLPLLAWSEDDVTRASPISRKLIQFQQYYFLVICILLRFIWCFQSVLTVRSLKDRDNQFYRSQYKKEAIGLALHWTLKTLFHLFFMPSILTSLLVFFVSELVGGFGIAIVVFMNHYPLEKIGDSVWDGHGFSVGQIHETMNIRRGIITDWFFGGLNYQIEHHLWPTLPRHNLTAVSYQVEQLCQKHNLPYRNPLPHEGLVILLRYLAVFARMAEKQPAGKAL |  |  | percent (%) substrate conversion of the codon-optimized gene: 75%
9 | M. alpina Δ6 desaturase: GenBank AF465281; codon-optimized gene SEQ ID NO:3 (protein, listed as Mortierella alpina, misc_feature: synthetic delta-6 desaturase (codon-optimized)) MAAAPSVRTFTRAEVLNAEALNEGKKDAEAPFLMIIDNKVYDVREFVPDHPGGSVILTHVGKDGTDVFDTFHPEAAWETLANFYVGDIDESDRDIKNDDFAAEVRKLRTLFQSLGYYDSSKAYYAFKVSFNLCIWGLSTVIVAKWGQTSTLANVLSAALLGLFWQQCGWLAHDFLHHQVFQDRFWGDLFGAFLGGVCQGFSSSWWKDKHNTHHAAPNVHGEDPDIDTHPLLTWSEHALEMFSDVPDEELTRMWSRFMVLNQTWFYFPILSFARLSWCLQSILFVLPNGQAHKPSGARVPISLVEQLSLAMHWTWYLATMFLFIKDPVNMLVYFLVSQAVCGNLLAIVFSLNHNGMPVISKEEAVDMDFFTKQIITGRDVHPGLFANWFTGGLNYQIEHHLFPSMPRHNFSKIQPAVETLCKKYNVRYHTTGMIEGTAEVFSRLNEVSKATSKMGKAQ | 42% | 30% | 

Reference: patent US7588931B2, “High arachidonic acid producing strains of Yarrowia lipolytica” (E. I. du Pont de Nemours and Company, priority 2004, dated 2009)
